# B1: TIA1 (parent)
# chain: TYECRCIGEEKEMWNFGEKYARF
# B2: PLAGL1 (parent)
# chain: CKDFLCQFCAQRFGRKDHLTRHTK
# Variants of: B1
# Test: protein stability index of a GFP-peptide fusion (GPS, HEK-293T) (PSI 1-6); higher = more stable
# Conditions: c terminus: native
# 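Note: lentivirally expressed fusions sorted by FACS into six bins by GFP to DsRed ratio, PSI derived from sequencing read proportions per bin multiplied by bin number.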
row,Variant,protein stability index
1,AYECRCIGEEKEMWNFGEKYARF,2.54
2,WYECRCIGEEKEMWNFGEKYARF,1.68
3,QYECRCIGEEKEMWNFGEKYARF,2.35
4,SYECRCIGEEKEMWNFGEKYARF,2.51
5,RYECRCIGEEKEMWNFGEKYARF,1.68
6,CYECRCIGEEKEMWNFGEKYARF,1.23
7,LYECRCIGEEKEMWNFGEKYARF,1.7
8,HYECRCIGEEKEMWNFGEKYARF,2.31
9,PYECRCIGEEKEMWNFGEKYARF,3.63
10,VYECRCIGEEKEMWNFGEKYARF,1.8
11,KYECRCIGEEKEMWNFGEKYARF,1.83
12,IYECRCIGEEKEMWNFGEKYARF,2.19
13,MYECRCIGEEKEMWNFGEKYARF,3.02
14,DYECRCIGEEKEMWNFGEKYARF,3.71
15,NYECRCIGEEKEMWNFGEKYARF,3.21
16,YYECRCIGEEKEMWNFGEKYARF,1.63
17,GYECRCIGEEKEMWNFGEKYARF,2.27
18,EYECRCIGEEKEMWNFGEKYARF,4.38
19,TCECRCIGEEKEMWNFGEKYARF,3.3
20,TWECRCIGEEKEMWNFGEKYARF,4.98
21,TRECRCIGEEKEMWNFGEKYARF,3.07
22,TGECRCIGEEKEMWNFGEKYARF,4.38
23,TLECRCIGEEKEMWNFGEKYARF,3.66

row,Variant,protein stability index
1,TFECRCIGEEKEMWNFGEKYARF,4.21
2,TIECRCIGEEKEMWNFGEKYARF,3.31
3,TNECRCIGEEKEMWNFGEKYARF,3.75
4,TPECRCIGEEKEMWNFGEKYARF,3.99
5,TSECRCIGEEKEMWNFGEKYARF,3.2
6,TDECRCIGEEKEMWNFGEKYARF,4.27
7,TTECRCIGEEKEMWNFGEKYARF,4.18
8,THECRCIGEEKEMWNFGEKYARF,2.44
9,TMECRCIGEEKEMWNFGEKYARF,2.88
10,TEECRCIGEEKEMWNFGEKYARF,4.79
11,TQECRCIGEEKEMWNFGEKYARF,3.97
12,TAECRCIGEEKEMWNFGEKYARF,2.94
13,TKECRCIGEEKEMWNFGEKYARF,3.51
14,TVECRCIGEEKEMWNFGEKYARF,3.16
15,TYETRCIGEEKEMWNFGEKYARF,2.31
16,TYEYRCIGEEKEMWNFGEKYARF,1.93
17,TYESRCIGEEKEMWNFGEKYARF,2.01
18,TYEQRCIGEEKEMWNFGEKYARF,1.67
19,TYEWRCIGEEKEMWNFGEKYARF,1.91
20,TYEVRCIGEEKEMWNFGEKYARF,1.88
21,TYERRCIGEEKEMWNFGEKYARF,2.31
22,TYEPRCIGEEKEMWNFGEKYARF,3.81
23,TYEIRCIGEEKEMWNFGEKYARF,2.31

row,Variant,protein stability index
1,TYEHRCIGEEKEMWNFGEKYARF,3.33
2,TYEKRCIGEEKEMWNFGEKYARF,3.16
3,TYEARCIGEEKEMWNFGEKYARF,3.13
4,TYENRCIGEEKEMWNFGEKYARF,2.31
5,TYELRCIGEEKEMWNFGEKYARF,2.85
6,TYEFRCIGEEKEMWNFGEKYARF,2.28
7,TYEERCIGEEKEMWNFGEKYARF,2.2
8,TYEMRCIGEEKEMWNFGEKYARF,2.62
9,TYRCRCIGEEKEMWNFGEKYARF,1
10,TYPCRCIGEEKEMWNFGEKYARF,2.47
11,TYYCRCIGEEKEMWNFGEKYARF,2.18
12,TYKCRCIGEEKEMWNFGEKYARF,1.66
13,TYNCRCIGEEKEMWNFGEKYARF,1.98
14,TYGCRCIGEEKEMWNFGEKYARF,2.14
15,TYLCRCIGEEKEMWNFGEKYARF,2.42
16,TYCCRCIGEEKEMWNFGEKYARF,3.65
17,TYQCRCIGEEKEMWNFGEKYARF,2.61
18,TYACRCIGEEKEMWNFGEKYARF,2.23
19,TYTCRCIGEEKEMWNFGEKYARF,3.76
20,TYSCRCIGEEKEMWNFGEKYARF,1.94
21,TYMCRCIGEEKEMWNFGEKYARF,2.49
22,TYHCRCIGEEKEMWNFGEKYARF,1.8
23,TYDCRCIGEEKEMWNFGEKYARF,3.24

row,Variant,protein stability index
1,TYECRGIGEEKEMWNFGEKYARF,3.94
2,TYECRDIGEEKEMWNFGEKYARF,4.2
3,TYECRAIGEEKEMWNFGEKYARF,2.92
4,TYECREIGEEKEMWNFGEKYARF,4.37
5,TYECRFIGEEKEMWNFGEKYARF,3.08
6,TYECACIGEEKEMWNFGEKYARF,1.66
7,TYECSCIGEEKEMWNFGEKYARF,2.54
8,TYECDCIGEEKEMWNFGEKYARF,3.07
9,TYECWCIGEEKEMWNFGEKYARF,1.98
10,TYECLCIGEEKEMWNFGEKYARF,2.29
11,TYECGCIGEEKEMWNFGEKYARF,2.93
12,TYECCCIGEEKEMWNFGEKYARF,1.97
13,TYECYCIGEEKEMWNFGEKYARF,1.35
14,TYECKCIGEEKEMWNFGEKYARF,2.3
15,TYECNCIGEEKEMWNFGEKYARF,2.86
16,TYECQCIGEEKEMWNFGEKYARF,1.73
17,TYECECIGEEKEMWNFGEKYARF,2.02
18,TYECFCIGEEKEMWNFGEKYARF,2.1
19,TYECHCIGEEKEMWNFGEKYARF,2.62
20,TYECVCIGEEKEMWNFGEKYARF,2.46
21,TYECPCIGEEKEMWNFGEKYARF,3.48
22,TYECICIGEEKEMWNFGEKYARF,2.8
23,TYECTCIGEEKEMWNFGEKYARF,2.31

# Variants of: B2
# Test: as above
# Conditions: c terminus: a fixed tail appended
row,Variant,protein stability index
1,CKDFLCQFCAQRFGRKDHSTRHTK,2.13
2,CKDFLCQFCAQRFGRKDHVTRHTK,1.99
3,CKDFLCQFCAQRFGRKDHYTRHTK,1.9
